According to US20210317231A1 (BYONDIS B V, published 2021):
Substitutions are numbered along the chain they refer to.

B1: chimeric anti-5T4 monoclonal antibody 847 (antibody, human IgG1, V domains shown)
VH: QSVEESGGRLVTPGTPLTLTCTVSGFSLSSYDMSWVRQAPGKGLEYIGYINSDGSAYYASWAKGRFTISKTSSTTVDLKITSPTTEDTATYFCARDAGSTYLYGMDPWGPGTLVTVSS
VL: DVVMTQTPASVSEPVGGTVTINCQASQSIYSYLAWYQQKPGQRPKLLIYAASTLASGVSSRFKGSGSGTQFTLTISDLESADAATYYCQCTYYGGTFNTFGGGTEVVVK
B2: chimeric anti-5T4 monoclonal antibody 908 (antibody, human IgG1, V domains shown)
VH: QSVEESGGRLVTPGTPLTLTCTVSGFSLSNFAMSWVRQAPGKGLEWIGIINGYGSIYYATWAKGRFTISKTSTTVDLKITSPTTEDTATYFCARGDAGRTYNHYFNIWGPGTLVTVSL
VL: DVVMTQTPASVEAAVGGTVTIKCQASQSISSWLSWYQQKPGQRPKLLIYAASNLASGVPSRFKGSGSGTQFTLTISDLESDDAATYYCQQGYTSYNVDNAFGGGTEVVVK
B3: chimeric anti-5T4 monoclonal antibody 811 (antibody, human IgG1, V domains shown)
VH: QSVEESGGRLVTPGTSLTLTCTASGFSLSTYAMIWVRQAPGKGLEWIGIINSSGYTYYANWAKGRFTISKTSTTVDLKITSPTTEDTATYFCARGNAGISYDVSFNLWGQGTLVTVSS
VL: AYDMTQTPASVEAGVGGTVTINCQASESISSWLAWYQQKPGQPPNLLIYEASKLASGVPSRFSGSGSGTEFTLTISGVESADAATYYCQQGWTSSNIDNAFGGGTEVVVK
B4: chimeric anti-5T4 monoclonal antibody 828 (antibody, human IgG1, V domains shown)
VH: QSVEESGGRLVTPGTPLTLTCTVSEIDLSTYAMSWVRQAPGKGLEWIGIISAGGSAYYASWAKGRFTISRTSTTVDLKMTSLTTEDTATYFCARGAAYAGYTYGFSFFDIWGPGTLVTVSL
VL: DIVMTQTPSSVSAAVGGTVTINCQASQNIYSNLAWYQQKPGQRPKLLIYGASNLESGVPSRFKGSGSGTEYTLTISDLESDDAATYYCQSIDYGNNYLGSFGGGTEVVVK
B5: humanized anti-5T4 antibody 789a with HC-41C mutation (antibody, V domains shown)
VH: EVKVEESGGGLVQPGGSLRLSCAASGFSLSSYWMSWVRQACGKGLEWVSIIAGRGSTYYASWAKGRFTISKDNSEGMVYLQMNSLRAEDTAVYYCARVSSIYYTFNLWGQGTTVTVSS
VL: EIVLTQSPSSLSASVGDRVTITCQSSQSVYSNNELSWYQQKPGKAPKLLIYYASTLASGVPSRFSGSGSGTDFTLTISSLQPEDFATYYCQGSYYSGSGWYYAFGQGTKLEIKR
B6: humanized anti-5T4 antibody 789d with HC-41C mutation (antibody, V domains shown)
VH: QSVEESGGGLVQPGGSLRLSCAASGFSLSSYWMSWVRQACGKGLEWIGIIAGRGSTYYASWAKGRFTISRDNSKNTLYLQMNSLRAEDTAVYYCARVSSIYYTFNLWGQGTLVTVSS
VL: B5 VL with E1A, I2Q, Q106G, L110V
B7: humanized anti-5T4 antibody 789b with HC-41C mutation (antibody, V domains shown)
VH: EVQLLESGGSLVLPGGSLRLSCAASGFSLSSYWMSWVRQACGKGLEWVSIIAGRGSTYYASWAKGRFTISRDNSKNTLYMQMNSLRAEDTALYFCARVSSIYYTFNLWGQGTLVTVSS
VL: B5 VL
B8: prior art anti-5T4 antibody H8 (H8 humanized variant 1) (antibody, human IgG1, kappa, V domains shown)
VH: QVQLVQSGAEVKKPGASVKVSCKASGYSFTGYYMHWVKQSPGQGLEWIGRINPNNGVTLYNQKFKDRVTMTRDTSISTAYMELSRLRSDDTAVYYCARSTMITNYVMDYWGQGTLVTVSS
VL: DIVMTQSPDSLAVSLGERATINCKASQSVSNDVAWYQQKPGQSPKLLISYTSSRYAGVPDRFSGSGSGTDFTLTISSLQAEDVAVYFCQQDYNSPPTFGGGTKLEIKR
B9: humanized anti-5T4 antibody 825b with HC-41C mutation (antibody, human IgG1, kappa, V domains shown)
VH: EVQLEESGGGLVKPGGSLRLSCAASGIDLSSYGMGWVRQACGKGLEWVSIISRNSVTYYATWAKGRFTISRDNSKNTLYLQMNSLRAEDTAVYYCARRATYSGALGYFDIWGRGTLVTVSS
VL: EIVMTQSPSSLSASVGDRVTITCQASENIYSTLAWYQQKPGKAPKLLIYDAFDLASGVPSRFSGSGSGTDYTLTISSLQPEDFATYYCQQGYSGTNVDNAFGQGTKLEIKR
B10: humanized anti-5T4 antibody 833a with HC-41C mutation (antibody, human IgG1, kappa, V domains shown)
VH: EVQLVESGGGLIQPGGSLRLSCAASGIDLSHYVVGWVRQACGKGLEWVSIIYGSGRTYYANWAKGRFTISKDNSKNTLYVRMNSLRAEDTAVYYCARDASVSVYYWGYFDLWGQGTLVTVSS
VL: AYDMTQSPSSVSASVGDRVTITCQASQSIGSELAWYQQKPGKAPKLLIYRASTLESGVPSRFSGSGSGTDFTLTISSLQPEDFATYYCQQGYTYSEIDNAFGGGTKVEIKR
B11: humanized anti-5T4 antibody 833d with HC-41C mutation (antibody, human IgG1, kappa, V domains shown)
VH: QSLEESGGGLVQPGGSLRLSCAASGIDLSHYVVGWVRQACGKGLEWIGIIYGSGRTYYANWAKGRFTISRHNSKNTLYLQMNSLRAEDTAVYYCARDASVSVYYWGYFDLWGQGTLVTVSS
VL: B10 VL with A1D, Y2I, D3Q, V11L, K42Q, D70E, L73F, F83L, G103Q, V107L
B12: humanized anti-5T4 antibody 833c with HC-41C mutation (antibody, human IgG1, kappa, V domains shown)
VH: B10 VH with V5E, I12V, Q13K, K71R, V80L, R81Q, Q114R
VL: B10 VL with A1D, Y2I, D3Q, S10T, V11L, D70E, E81D, G103Q
B13: humanized anti-5T4 antibody 833b with HC-41C mutation (antibody, human IgG1, kappa, V domains shown)
VH: B10 VH with I12V, K71R, Y79F, V80L, A87V, Y94F
VL: B10 VL
B14: chimeric anti-5T4 antibody 899 with HC-41C mutation (antibody, human IgG1, V domains shown)
VH: QSVEESGGRLVTPGTPLTLTCTVSGFSLSSYTMSWVRQACGKGLEYIGIISSSDGTWYANWVKGRFTISKTSTTVDLKMTSLTTEDTATYFCARDGTGNKYYTWDRLDLWGQGTLVTVSS
VL: NIVMTQTPSPVSGAVGGTVTINCQASQSIYNELSWYQQKPGQPPKLLIYYASTLASGVSSRFKGSGSGTQFTLTISGVESVDAATYYCQQGYSSSNVDNVFGGGTEVVVK
notes: Human IgG1 constant parts; also called chimeric 899; 899 chimeric
B15: humanized anti-5T4 antibody 789c with HC-41C mutation (antibody, V domains shown)
VH: B6 VH
VL: DIVMTQSPDSLAVSLGERATINCQSSQSVYSNNELSWYQQKPGQPPKLLIYYASTLASGVPDRFSGSGSGTDFTLTISSLQAEDVAVYYCQGSYYSGSGWYYAFGGGTKLEIKR

These binders were tested against T1, cynomolgus monkey 5T4 antigen (cynomolgus monkey, UniProt Q4R8Y9 35-420) (assay: flow cytometry, CHOZN cells expressing cyno 5T4).
T1 construct: whole, on cells; also called cyno 5T4
T1 sequence (looked up): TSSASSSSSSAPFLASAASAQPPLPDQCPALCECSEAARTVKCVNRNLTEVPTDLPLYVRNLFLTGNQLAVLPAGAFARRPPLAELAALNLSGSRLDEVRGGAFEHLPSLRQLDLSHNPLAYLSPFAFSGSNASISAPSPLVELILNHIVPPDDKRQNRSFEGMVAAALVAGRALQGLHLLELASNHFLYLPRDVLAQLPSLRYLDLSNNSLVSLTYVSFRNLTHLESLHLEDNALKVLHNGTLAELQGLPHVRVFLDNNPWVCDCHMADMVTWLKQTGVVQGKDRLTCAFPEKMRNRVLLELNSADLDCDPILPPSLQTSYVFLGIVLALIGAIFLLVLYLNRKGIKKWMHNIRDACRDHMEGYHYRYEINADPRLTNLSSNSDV
Protocol: (§1) MDA-MB-468 cells, PA-1 cells or CHOZN cells expressing human or cyno 5T4 antigen (100,000 cells/well in a 96-well plate) were washed three times with ice-cold FACS buffer (1×PBS (Lonza) containing 0.2% v/w BSA (Sigma-Aldrich, St. Louis, Mo.)) and 0.02% v/w NaN3 (Sigma-Aldrich), followed by the addition of a concentration range of each primary mAb (50 μl/well) diluted in ice-cold FACS buffer. After an incubation of 30 minutes at 4° C., cells were washed three times with ice-cold FACS buffer and 50 μl/well secondary mAb (AffiniPure F(ab′)2 fragment Goat-anti-human IgG-APC, 1:6,000 dilution, Jackson Immuno Research) was added. After 30 minutes at 4° C., cells were washed twice and resuspended in 150 μl FACS buffer. Fluorescence intensities were determined by flow cytometry (BD FACSVerse, Fanklin Lakes, N.J.) and indicated as the median fluorescence intensity (MFI). Curves were fitted by nonlinear regression using the sigmoidal dose-response equation with variable slope (four parameters) in GraphPad Prism (version 5.01/6.01 for Windows, GraphPad, San Diego, Calif.). EC₅₀ values were calculated as the concentration in μg/ml that gives a response half way between bottom and top of the curve, when using a 4 parameter logistic fit.
In the case of B1, the “fold improvement of binding compared to H8 on cyno 5T4” value (“fold improvement of binding” for short) is reported as 32 fold. For B2, the “fold improvement of binding” value was 32 fold. B3 was tested, and the “fold improvement of binding” value was 32 fold. For B4, the “fold improvement of binding” value was 7 fold.

Target: T1, cynomolgus monkey 5T4 antigen
Experiment: flow cytometry, CHOZN cells expressing cyno 5T4
Remark: another data set of the same source
B5 gave an EC50 of 0.33 µg/mL. B6 was tested, and the EC50 was 0.15 µg/mL. B7 showed an EC50 of 0.24 µg/mL. B8 gave an EC50 of 1.99 µg/mL. For B9, the EC50 was 0.46 µg/mL. B10 was tested, and the EC50 was 0.12 µg/mL. B11 was tested, and the EC50 was 0.16 µg/mL. Binder B12 has an EC50 of 0.17 µg/mL. B13 gave an EC50 of 0.18 µg/mL. B14 gave an EC50 of 0.18 µg/mL. With B15 the EC50 was 0.21 µg/mL.

Target: T1, cynomolgus monkey 5T4 antigen
Experiment: flow cytometry, CHOZN cells expressing cyno 5T4
Remark: another data set of the same source
Protocol: (§2) 17 antibodies were selected and affinity to 5T4 antigen was measured using MDA-MB-468 cells, PA-1 cells and Chinese Hamster Ovary (CHO) mammalian cells expressing human or cyno 5T4 antigen (Table 2). In the current application the utilized CHO cells are referred to as CHOZN as these CHO cells expressing human or cyno 5T4 antigen were obtained using the CHOZN® Platform of Sigma-Aldrich. CHOZN cells (SAFC) were transiently transfected, using an Amaxa nucleofector device (Lonza) according to the manufacturer's instructions. Standard, commercially available mammalian expression vectors (SAFC, Life Technologies) were used, which contained the full length human and cyno 5T4 antigen coding sequence (according to accession number NP 006661.1 and Q4R8Y9 respectively), preceded by a human CMV promoter. Transiently transfected CHOZN cells were cultured according the manufacturer's instructions, before being used in antibody binding studies. The 17 selected antibodies are characterised by the amino acid sequences according to the following table (Table 1).
as §1
Work on B1 yielded an EC50 of 0.2 µg/mL. B2 was tested, and the EC50 was 0.24 µg/mL. Work on B8 yielded an EC50 of 8.11 µg/mL. With B3 the EC50 was 0.25 µg/mL. For B4, the EC50 was 0.82 µg/mL.

These binders were tested against T2, human 5T4 oncofoetal antigen (human, UniProt Q13641 32-420) (assay: flow cytometry, CHOZN cells expressing hu 5T4).
T2 construct: whole, on cells; also called hu 5T4; human 5T4 antigen
T2 sequence (looked up): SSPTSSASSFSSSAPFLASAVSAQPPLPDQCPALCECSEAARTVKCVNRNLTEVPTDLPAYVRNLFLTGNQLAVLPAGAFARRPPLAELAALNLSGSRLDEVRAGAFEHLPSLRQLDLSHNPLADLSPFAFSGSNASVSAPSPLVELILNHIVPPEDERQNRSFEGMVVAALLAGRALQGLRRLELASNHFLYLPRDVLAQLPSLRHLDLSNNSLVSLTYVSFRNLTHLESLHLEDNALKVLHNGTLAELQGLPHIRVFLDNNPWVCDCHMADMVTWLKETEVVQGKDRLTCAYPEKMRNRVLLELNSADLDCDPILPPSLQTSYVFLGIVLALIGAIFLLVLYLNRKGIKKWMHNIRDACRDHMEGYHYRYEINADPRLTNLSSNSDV
B5 showed an EC50 of 0.2 µg/mL. For B6, the EC50 was 0.12 µg/mL. For B7, the EC50 was 0.15 µg/mL. For B9, the EC50 was 0.16 µg/mL. In the case of B10, the EC50 is reported as 0.22 µg/mL. In the case of B11, the EC50 is reported as 0.18 µg/mL. B12 showed an EC50 of 0.18 µg/mL. B13 showed an EC50 of 0.15 µg/mL. B14 showed an EC50 of 0.14 µg/mL. For B15, the EC50 was 0.2 µg/mL.

Target: T2, human 5T4 oncofoetal antigen
Experiment: flow cytometry, CHOZN cells expressing hu 5T4
Remark: another data set of the same source
Protocol: as §2, §1
Work on B1 yielded an EC50 of 0.22 µg/mL. With B2 the EC50 was 0.23 µg/mL. In the case of B3, the EC50 is reported as 0.34 µg/mL. For B4, the EC50 was 0.19 µg/mL.

These binders were tested against T2, human 5T4 oncofoetal antigen (assay: flow cytometry, MDA-MB-468 cells).
Protocol: as §2, §1
Work on B1 yielded an EC50 of 0.2 µg/mL. B2 gave an EC50 of 0.21 µg/mL. Binder B3 has an EC50 of 0.73 µg/mL. With B4 the EC50 was 0.1 µg/mL.

What follows are binders tested against T2, human 5T4 oncofoetal antigen (assay: flow cytometry, PA-1 cells).
Protocol: as §2, §1
B1 gave an EC50 of 0.22 µg/mL. In the case of B2, the EC50 is reported as 0.04 µg/mL. B3 was tested, and the EC50 was 0.4 µg/mL. B4 was tested, and the EC50 was 0.1 µg/mL.
